Data on 4 molecules can be found in paper PMC3039378 (The Journal of Biological Chemistry, 2010).

Data set [1] concerns the target SecA (wild type) (E. coli) (UniProt P10408).
In data set [2] the target is SecA_(795Fl), SecA_(A795C) labelled with 5-iodoacetamidofluorescein (E. coli) (UniProt P10408). Put plainly: other fluorescence titration.
In data set [3] the target is SecA-SecYEG complex with SecYE_(L106C)G cross-linked (106X, back-to-back dimer) in proteoliposomes (E. coli) (UniProt P10408).
Data set [4] has as its target SecA-SecYEG complex with SecYE_(L106C)G uncross-linked (106) in proteoliposomes (E. coli) (UniProt P10408).
The target in data set [5] is T1, SecY subunit (within wild-type SecYEG) (E. coli, UniProt P0AGA2 1-443).
T1 sequence: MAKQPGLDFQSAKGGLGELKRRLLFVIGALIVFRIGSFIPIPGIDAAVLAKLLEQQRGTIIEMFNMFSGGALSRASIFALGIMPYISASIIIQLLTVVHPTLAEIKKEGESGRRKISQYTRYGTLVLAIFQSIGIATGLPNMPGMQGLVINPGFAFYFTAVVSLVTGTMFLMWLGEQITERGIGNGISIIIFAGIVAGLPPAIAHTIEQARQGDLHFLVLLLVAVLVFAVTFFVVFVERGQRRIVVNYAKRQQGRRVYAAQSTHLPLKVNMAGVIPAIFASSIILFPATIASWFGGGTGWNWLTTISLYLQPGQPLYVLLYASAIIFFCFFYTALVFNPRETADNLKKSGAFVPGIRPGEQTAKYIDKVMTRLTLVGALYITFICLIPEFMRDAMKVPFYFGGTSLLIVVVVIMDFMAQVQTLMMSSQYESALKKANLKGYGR
The experiment in a line: cross-linking.

The data set “cross-linking” concerns the molecule itself. The experiment in a line: cross-linking.
For data set [6], the target named is SecA-SecYEG complex (wild-type SecYEG in proteoliposomes with SecA) (E. coli, UniProt P10408;P0AGA2;P0AG96;P0AG99).

As a reminder, the Kd is the constant that tells how readily two partners part at equilibrium. Low values mean higher affinity, high ones lower affinity. Regarding “SecYE_(L106C)G cross-linked (106X), back-to-back dimer (from UniProt P0AGA2;P0AG96;P0AG99) (complex)”, the Kd in data set [1] is 78 nM; in data set [2], < 1 nM. For “proOmpA (full-length, wild type) (from UniProt P0A910 1-346) (natural protein)”, the Kd in data set [3] is 92 nM; in data set [4], 93 nM.

B1: SecE subunit (within wild-type SecYEG) (natural protein)
chain: MSANTEAQGSGRGLEAMKWVVVVALLLVAIVGNYLYRDIMLPLRALAVVILIAAAGGVALLTTKGKATVAFAREARTEVRKVIWPTRQETLHTTLIVAAVTAVMSLILWGLDGILVRLVSFITGLRF
B1: the binding result (in data set [5]; in “cross-linking”) was “binds” in each case.

B2: proOmpA (full-length, wild type) (natural protein)
chain: MKKTAIAIAVALAGFATVAQAAPKDNTWYTGAKLGWSQYHDTGFINNNGPTHENQLGAGAFGGYQVNPYVGFEMGYDWLGRMPYKGSVENGAYKAQGVQLTAKLGYPITDDLDIYTRLGGMVWRADTKSNVYGKNHDTGVSPVFAGGVEYAITPEIATRLEYQWTNNIGDAHTIGTRPDNGMLSLGVSYRFGQGEAAPVVAPAPAPAPEVQTKHFTLKSDVLFNFNKATLKPEGQAALDQLYSQLSNLDPKDGSVVVLGYTDRIGSDAYNQGLSERRAQSVVDYLISKGIPADKISARGMGESNPVTGNTCDNVKQRAALIDCLAPDRRVEIEVKGIKDVVTQPQA
The molecule B2 came in with an equilibrium dissociation constant (Kd) in data set [6] of 72 ± 41 nM.
